By stoichiometry N is commonly meant a count of units in the complex or per binding partner.

The record followed here is publication PMC4829898.

This experiment has as its target recombinant soluble tetrameric neuraminidase (tetNA) (Staphylothermus marinus | influenza A virus A/Belgium/2009 (H1N1, 2009 pandemic)). Nature of the experiment: SEC. Background: In gel filtration, larger molecules generally elute earlier.

For “recombinant soluble tetrameric neuraminidase (tetNA) (enzyme)”, the stoichiometry N was determined as 4.
